How the values were obtained:
Test in all cases: cell-based or functional assay
[1] = target: ACM335-FKBP hybrid protein (from plasmid pCm-ACM335-FKBP) (Bordetella pertussis) (UniProt P62942)
[2] = target: AC-GFP hybrid protein (wild-type AC fused at its C-terminus to GFP, from plasmid pCm-AC-GFP) (Bordetella pertussis) (UniProt J7QLC0)
[3] = target: AC (wild-type, from plasmid pCm-AC, no fused moiety) (Bordetella pertussis) (UniProt J7QLC0)
[4] = target: ACM335 (from plasmid pCm-ACM335, no fused moiety) (Bordetella pertussis) (UniProt J7QLC0)
[5] = target: ACM335-GFP hybrid protein (from plasmid pCm-ACM335-GFP) (Bordetella pertussis)
[6] = target: ACM247-GFP hybrid protein (from plasmid pCm-ACM247-GFP) (Bordetella pertussis) (UniProt J7QLC0)

| Substance | β-galactosidase (relative units) [1] | β-galactosidase (relative units) [2] | β-galactosidase (relative units) [3] | β-galactosidase (relative units) [4] | β-galactosidase (relative units) [5] | cAMP; CaM from pTr-CaM (nmol/mg dry weigth) [2] | β gal; CaM from pTr-CaM [2] | cAMP; CaM from pTr-CaM (nmol/mg dry weigth) [6] | β gal; CaM from pTr-CaM [6] | β gal; CaM from pTr-CaM [5] |
| --- | --- | --- | --- | --- | --- | --- | --- | --- | --- | --- |
| CaMVU8 (VU-8 calmodulin, from plasmid pCaMVU8) (from UniProt P0DP23 2-149) | 6 | 5 | 6 | 7 | 6 | – | – | – | – | – |
| CaM (from plasmid pTr-CaM, not fused to a moiety of interest) (from UniProt P0DP23 2-149) | – | – | – | – | – | > 250 | 106 Rel. Units | < 0.1 | 1 Rel. Units | 80 Rel. Units |
